Data taken from patent US12258605B2, “Alkane oxidation by modified hydroxylases” (The California Institute of Technology, priority 2005, dated 2025).

B1: Wild-type BM-3: wild-type cytochrome P450 BM-3 from Bacillus megaterium, SEQ ID NO:1 (protein, listed as Bacillus megaterium)
chain: TIKEMPQPKTFGELKNLPLLNTDKPVQALMKIADELGEIFKFEAPGRVTRYLSSQRLIKEACDESRFDKNLSQALKFVRDFAGDGLFTSWTHEKNWKKAHNILLPSFSQQAMKGYHAMMVDIAVQLVQKWERLNADEHIEVPEDMTRLTLDTIGLCGFNYRFNSFYRDQPHPFITSMVRALDEAMNKLQRANPDDPAYDENKRQFQEDIKVMNDLVDKIIADRKASGEQSDDLLTHMLNGKDPETGEPLDDENIRYQIITFLIAGHETTSGLLSFALYFLVKNPHVLQKAAEEAARVLVDPVPSYKQVKQLKYVGMVLNEALRLWPTAPAFSLYAKEDTVLGGEYPLEKGDELMVLIPQLHRDKTIWGDDVEEFRPERFENPSAIPQHAFKPFGNGQRACIGQQFALHEATLVLGMMLKHFDFEDHTNYELDIKETLTLKPEGFVVKAKSKKIPLGGIPSPSTEQSAKKVRKKAENAHNTPLLVLYGSNMGTAEGTARDLADIAMSKGFAPQVATLDSHAGNLPREGAVLIVTASYNGHPPDNAKQFVDWLDQASADEVKGVRYSVFGCGDKNWATTYQKVPAFIDETLAAKGAENIADRGEADASDDFEGTYEEWREHMWSDVAAYFNLDIENSEDNKSTLSLQFVDSAADMPLAKMHGAFSTNVVASKELQQPGSARSTRHLEIELPKEASYQEGDHLGVIPRNYEGIVNRVTARFGLDASQQIRLEAEEEKLAHLPLAKTVSVEELLQYVELQDPVTRTQLRAMAAKTVCPPHKVELEALLEKQAYKEQVLAKRLTMLELLEKYPACEMKFSEFIALLPSIRPRYYSISSSPRVDEKQASITVSVVSGEAWSGYGEYKGIASNYLAELQEGDTITCFISTPQSEFTLPKDPETPLIMVGPGTGVAPFRGFVQARKQLKEQGQSLGEAHLYFGCRSPHEDYLYQEELENAQSEGIITLHTAFSRMPNQPKTYVQHVMEQDGKKLIELLDQGAHFYICGDGSQMAPAVEATLMKSYADVHQVSEADARLWLQQLEEKGRYAKDVWAG
B2: 35-E11: P450 BM-3 variant, SEQ ID NO:7: 53-5H substitutions plus E464G and I710T (protein)
chain: TIKEMPQPKTFGELKNLPLLNTDKPVQALMKIADELGEIFKFEAPGCVTRYLSSQRLIKEACDESRFDKNLSQALKFFRDFSGDGLFTSWTHEINWKKAHNILLPSFSQQAMKGYHAMMVDIAVQLVQKWERLNADEHIEVSEDMTRLTLDTIGLCGFNYRFNSFYRDQPHPFIISMVRALDEVMNKLQRANPDDPAYDENKRQCQEDIKVMNDLVDKIIADRKARGEQSDDLLTQMLNGKDPETGEPLDDGNISYQIITFLIAGHETTSGLLSFALYFLVKNPHVLQKVVEEAARVLVDPVPSYKQVKQLKYVGMVLNEALRLWPTFPAFSLYAKEDTVLGGEYPLEKGDEVMVLIPQLHRDKTIWGDDVEEFRPERFENPSAIPQHAFKPFGNGQRACIGQQFALHEATLVLGMMLKHFDFEDHTNYELDIKETLTLKPEGFVVKAKSKKIPLGGIPSPSTGQSAKKVRKKAENAHNTPLLVLYGSNMGTAEGTARDLADIAMSKGFAPQVATLDSHAGNLPREGAVLIVTASYNGHPPDNAKQFVDWLDQASADEVKGVRYSVFGCGDKNWATTYQKVPAFIDETLAAKGAENIADRGEADASDDFEGTYEEWREHMWSDVAAYFNLDIENSEDNKSTLSLQFVDSAADMPLAKMHGAFSTNVVASKELQQPGSARSTRHLEIELPKEASYQEGDHLGVIPRNYEGTVNRVTARFGLDASQQIRLEAEEEKLAHLPLAKTVSVEELLQYVELQDPVTRTQLRAMAAKTVCPPHKVELEALLEKQAYKEQVLAKRLTMLELLEKYPACEMKFSEFIALLPSIRPRYYSISSSPRVDEKQASITVSVVSGEAWSGYGEYKGIASNYLAELQEGDTITCFISTPQSEFTLPKDPETPLIMVGPGTGVAPFRGFVQARKQLKEQGQSLGEAHLYFGCRSPHEDYLYQEELENAQSEGIITLHTAFSRMPNQPKTYVQHVMEQDGKKLIELLDQGAHFYICGDGSQMAPAVEATLMKSYADVHQVSEADARLWLQQLEEKGRYAKDVWAG
modifications: mutant P450 35-E11 protein sequence

Key:
Type in all cases: biochemical
[1] = Propane hydroxylation (rate, total turnover, products)
Protocol: Cell lysates for high throughput screening were prepared as described previously (Peters et al., J. Am. Chem. Soc. 125:13442 (2003); incorporated by reference herein). High-throughput dimethyl ether (DME) screens were performed in 96 well plates as described previously. Improved mutants were selected based on an increased signal compared to 9-10A (for the saturation mutagenesis libraries) and 1-12G (for the recombination library). Reactions on octane and propane were analyzed by gas chromatography as described.
Rates of ethanol formation were measured over 30 min using gas chromatography (GC) coupled to an electron capture detector (ECD) and are reported as nmol ethanol/min/nmol enzyme. Errors are at most 10%. Total turnover number (ttn) was measured using GC after completion of the reaction and is reported as nmol product/nmol protein. Errors are at most 10%. Initial rates of propanol and octanol formation were measured over 1 min by GC and are reported as nmol product/min/nmol protein. Errors are at most 15%. The “ee” of 2-octanol (main product) was measured by GC; the favored enantiomer is listed in parenthesis. Wild-type P450 BM-3 primarily produces 3- and 4-octanol. The yields were not sufficient for the determination of ee for wt BM-3. Mutant 9-10A contains amino acid substitutions R47C, V78A K94I, P142S, T175I, A184V, F205C, S226R, H236Q, E252G, R255S, A290V, and L353V.
In Table 5 the product distribution is determined as ratio of a specific alcohol product to the total amount of all alcohol products (given in %). The product distribution for ketones was similar to alcohol product distribution. The numbers reported here are the (%) total of all ketones relative to total products (alcohols+ketones). The favored enantiomer is listed in parentheses.
For the data shown in Table 6 the initial NADPH consumption rates were measured over 15 seconds at 340 nm as nmol NADPH/min/nmol protein. Octane reactions contained 100 nM P450, 166 uM NADPH, and 4 mM octane in 1% ethanol and potassium phosphate buffer. […] Errors are at most 10%. Initial rates were measured by GC over 1 minute as nmol total products/min/nmol protein. Octane reactions contained 100 nM P450, 500 uM NADPH, and 4 mM octane in 1% ethanol and potassium phosphate buffer. Propane reactions contained 1 uM P450, 500 uM NADPH, and propane-saturated potassium phosphate buffer. Coupling was determined by ratio of product formation rate to NADPH consumption rate. Total turnover numbers were determined as nmol product/nmol enzyme. Octane reactions contained 10-25 nM P450, 500 uM NADPH, and 4 mM octane in 1% ethanol and potassium phosphate buffer. Propane reactions contained 10-25 nM protein, potassium phosphate buffer saturated with propane, and an NADPH regeneration system containing 100 uM NADP+, 2 U/mL isocitrate dehydrogenase, and 10 mM isocitrate.

Reactions on laurate = conditions: laurate 2 mM, 5 hours, room temperature
Protocol: Reactions on laurate. P450PMO activity on laurate was tested mixing the substrate (2 mM) with purified protein (up to 0.5 μM) in 100 mM KPi pH 8.0 buffer, and adding NADPH to final concentration of 1 mM. Reaction mixtures were incubated for 5 hours at room temperature under gentle stirring. Analysis of the hydroxylated products was carried out by derivatization with N-methyl-N-trimethylsilylheptafluorobutyramide (Aldrich) followed by GC analysis according to a published procedure. A control experiment was carried out using wild-type P450BM3.
Products from alkane reactions were identified and quantified by gas chromatography using authentic standards and calibration curves with internal standards. For the reactions with alkanes from pentane to decane, GC analyses were carried out using a Shimadzu GC-17A gas chromatograph, Agilent HP5 column (30 m×0.32 mm×0.1 μm film), 1 μL injection, FID detector, and the following separation program: 250° C. inlet, 250° C. detector, 50° C. oven for 3 min, 5° C./min gradient to 100° C., 25° C./min gradient to 230° C., and 230° C. for 3 min. […] Organic solutions were analyzed by FID-GC. […]

[2] = Kinetic constants for n-alkanes: hexane; conditions: N.a. = not active
Protocol: Rate measurements. Initial rates of product formation were determined at 25° C. in 100 mM KPi pH 8.0 buffer using purified protein (100 nM) and a substrate concentration of 1.6 mM. In a 5 mL-vial, 20 μL of alkane solution (in ethanol) were dissolved in 400 μL KPi buffer, to which 500 μL enzyme solution at 100-200 nM was added. Reaction was initiated by adding 100 μL of 5 mM NADPH solution, followed by stirring at 300 rpm for 1 minute, and quenched by adding 200 μL chloroform and stirring at 800 rpm for 10 sec. Solutions were transferred to an Eppendorf tube, to which internal standard (10 μL 25 mM 1-bromohexane in ethanol) was added. Tubes were vortexed for 10 sec and centrifuged for 30 sec at 10,000 g. Organic phase was removed and analyzed by GC. For propane, reactions were carried out in a 5 mL-scale using 100-400 nM purified enzyme, propane-saturated buffer (propane concentration≈1.6 mM) and a final NADPH concentration of 500 μM. Reactions were stopped by addition of 200 μL H2SO4 conc. and analyzed by derivatization to alkyl nitrites followed by GC-ECD analysis as described below.
Products from alkane reactions were identified and quantified by gas chromatography using authentic standards and calibration curves with internal standards. For the reactions with alkanes from pentane to decane, GC analyses were carried out using a Shimadzu GC-17A gas chromatograph, Agilent HP5 column (30 m×0.32 mm×0.1 μm film), 1 μL injection, FID detector, and the following separation program: 250° C. inlet, 250° C. detector, 50° C. oven for 3 min, 5° C./min gradient to 100° C., 25° C./min gradient to 230° C., and 230° C. for 3 min. For butane and propane (TTN) reactions, GC analyses were carried out using a Hewlett-Packard 5890 Series II Plus gas chromatograph, Supelco SPB-1 column (60 m×0.52 mm×0.5 μm film), 0.5 μL injection, FID detector, and the following separation program: 250° C. inlet, 275° C. detector, 80° C. oven for 2 min, 10° C./min gradient to 110° C., 25° C./min gradient to 275° C., and 275° C. for 2.5 min. For ethane and propane (rate) reactions, analysis of reaction mixtures was carried out by derivatization to alkyl nitrites followed by GC-ECD analysis. For laurate, reaction product analysis was carried out by derivatization with N-methyl-N-trimethylsilylheptafluorobutyramide followed by extraction with hexane. Organic solutions were analyzed by FID-GC.
To further investigate the evolution of substrate specificity, kinetic constants for the C5 to C8 alkanes were determined from Michaelis-Menten plots (Table 19). The preference of 35E11 and its evolutionary predecessors for medium-chain alkanes is indicated by their high C8/C5 specificities ((kcat/Km)8/(kcat/Km)5˜100), where Km appears to be the major contributing factor. […]

Molecule	activity on propane ([1]; listed as P450BM3)	activity on propane ([1]; listed as wild-type P450BM3)	activity on propane ([1]; listed as wildtype cytochrome P450 BM-3)	hydroxylation products of laurate (Reactions on laurate)	Propane ttn ([1]; after completion of the reaction)	Propane Rate ([1]; initial rate of propanol formation over 1 min by GC)	Km [2]	kcat [2]
B1	no measurable activity	no detectable propane activity	inactive	multiple hydroxylation products were detected	–	–	–	–
B2	–	–	–	–	6000 nmol product/nmol protein	210 nmol product/min/nmol protein	370 ± 33 µM	11.8 ± 1.15 s⁻¹
